From the RNAGym collection of RNA variant scans (doi:10.1073/pnas.2313332121)

B1: TPR t1 (parent)
chain: GACCAAUCUGCCCUCAGAGCUCGAGAACAUCUUCGGAUGCAGAGGAGGCAGGCUUCGGUGGCGCGAUAGCGCCAACGUCCUCAACCUCCAAUGCAUCCCACCACAUGAUGAUGCCUGAAGAGCCUUGGUUUUUUG

Variants of: B1
Assay: polymerase ribozyme fitness, log enrichment relative to wild type (log ratio); higher = more active; in vitro selection for triplet polymerase activity
How it was run: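 Fitness measures genotype enrichment against wild-type enrichment on a logarithmic scale, with inverse-variance-weighted averaging of replicates. The logarithm is base 2, and genotypes were kept only with ≥10 input reads and ≥1 read per output in Illumina sequencing. The sequenced libraries came from one triplicate in vitro selection round, including frozen incubation at −7 °C, of PCR-built, transcribed mutant libraries of each subunit of a heterodimeric triplet polymerase ribozyme.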

Going from C8G C73G A91G to C8G C11G G36U G71C U78G U132A, the “polymerase ribozyme fitness (log ratio)” value falls from -1.87 to -4.02.

Going from C8G A121G to C8G G63A C73U U78C C123G, the “polymerase ribozyme fitness (log ratio)” value falls from 1.62 to 0.795.

Going from C8G U30C C70U G113C U133A to C8A U9G A26G G44A G45U G63U C115A, the “polymerase ribozyme fitness (log ratio)” value rises from -5.26 to -3.15.

Compared with C8G C15U C89G G93A C101U G113C C114U G127C, C8A G58C U59C A105C U132A is higher in “polymerase ribozyme fitness (log ratio)” value: -3.86 for the first, -2.68 for the second.

First: C8G G93U
Second: C8U G19A U21C U55C
The “polymerase ribozyme fitness (log ratio)” value of the first is higher: -0.15 for the first, -2.54 for the second.

C8G C20U A84U G122U and C8A C82G are within 0.2 log units of each other in “polymerase ribozyme fitness (log ratio)” value: -0.907 for the first, -0.777 for the second.

Going from C8G G39A G63U A84U to C8U C22U G39U G113A G120C C123A, the “polymerase ribozyme fitness (log ratio)” value falls from -1.03 to -5.45.

Going from C8G C86A A105C to C8A C89U, the “polymerase ribozyme fitness (log ratio)” value rises from -1.39 to 0.136.

Going from C8A C64G A111G A121C U129A to C8A A43C G57A C72G U96C A103G A108G U109G, the “polymerase ribozyme fitness (log ratio)” value rises from -6.98 to -5.5.

Compared with C8G A16C U87A, C8G C22U A43G C88U C97A C99U C101U C102G G110C is lower in “polymerase ribozyme fitness (log ratio)” value: -0.437 for the first, -6.9 for the second.

Compared with C8A G135A, C8G C20G G63A C124G is lower in “polymerase ribozyme fitness (log ratio)” value: -0.0375 for the first, -4.75 for the second.

First: C8U C94A
Second: C8G G36U
The “polymerase ribozyme fitness (log ratio)” value of the first is lower: -0.617 for the first, 0.298 for the second.

Going from C8A C20A U126A to C8A C12G G61C C123A, the “polymerase ribozyme fitness (log ratio)” value rises from -3.84 to -0.379.

First: C8A G61A
Second: C8G C88A A111C
The “polymerase ribozyme fitness (log ratio)” value of the first is lower: -0.475 for the first, 0.461 for the second.

Compared with C8G C12U C97G, C8G A90C A91U A95G is higher in “polymerase ribozyme fitness (log ratio)” value: -3.16 for the first, -1.14 for the second.

First: C8A C123U
Second: C8A C20A C79A
The “polymerase ribozyme fitness (log ratio)” value of the first is higher: 1.44 for the first, -3.7 for the second.

Compared with C8A A37G C62G C72G U112G G127A, C8G A26U A29G is higher in “polymerase ribozyme fitness (log ratio)” value: -5.98 for the first, -3.46 for the second.

First: C8G U9G C73G C123A
Second: C8U G44U C99U
The “polymerase ribozyme fitness (log ratio)” value of the first is higher: 1.1 for the first, -2.6 for the second.

First: C8U C28G U109A
Second: C8G G17U A26U G120U
The “polymerase ribozyme fitness (log ratio)” value of the first is lower: -4.64 for the first, -2.91 for the second.

Compared with C8G G48U, C8G C12G C73U A83G G113C is lower in “polymerase ribozyme fitness (log ratio)” value: -0.882 for the first, -2.3 for the second.

Going from C8A U14C G93U to C8A A46U A74U A100U C102U C115A, the “polymerase ribozyme fitness (log ratio)” value falls from -0.798 to -2.37.

Going from C8U C13A C85A U106C C123A to C8A C28G G61A, the “polymerase ribozyme fitness (log ratio)” value falls from -0.442 to -2.22.

Going from C8A G44A G57A G77A G110U C123U to C8A G45U C56U A84C A95U, the “polymerase ribozyme fitness (log ratio)” value rises from -4.41 to -1.21.

First: C8G G52U
Second: C8A G36U G42A C62U
The “polymerase ribozyme fitness (log ratio)” value of the first is higher: 0.359 for the first, -2.62 for the second.

First: C8G G19U U125A
Second: C8G A43C G45A A50G G113U G120C
The “polymerase ribozyme fitness (log ratio)” value of the first is lower: -2.65 for the first, -2.24 for the second.

Going from C8G G48U G60U C85U U92A to C8G A41G G71A U78G G122U, the “polymerase ribozyme fitness (log ratio)” value rises from -3.06 to -1.62.

Compared with C8A G61C A119G U126G, C8U C62U C79U C82U A91U A105G C123G U129G U131G is lower in “polymerase ribozyme fitness (log ratio)” value: -2.44 for the first, -5.84 for the second.

Compared with C8A U38A A46C, C8U C72U U87C is higher in “polymerase ribozyme fitness (log ratio)” value: -1.09 for the first, 0.806 for the second.

C8U C56U C89A A118U and C8G C72A C102A are within 0.2 log units of each other in “polymerase ribozyme fitness (log ratio)” value: -1.04 for the first, -1.22 for the second.

Compared with C8A A37C C101G, C8U G42A C88U is higher in “polymerase ribozyme fitness (log ratio)” value: -1.22 for the first, -0.816 for the second.

First: C8G U92A
Second: C8U C13U A37C C70U A119G
The “polymerase ribozyme fitness (log ratio)” value of the first is lower: -1.78 for the first, -0.292 for the second.

First: C8A C22G G113U C114G
Second: C8G G48U C72A
The “polymerase ribozyme fitness (log ratio)” value of the first is lower: -3.52 for the first, 0.0646 for the second.

Going from C8G C12G C56U U106G U112G A118C U133G to C8G G42A, the “polymerase ribozyme fitness (log ratio)” value rises from -1.11 to -0.64.

C8G G63A A83G C85A G122A and C8A U21C G58C C82A U106G U132A are within 0.2 log units of each other in “polymerase ribozyme fitness (log ratio)” value: -1.28 for the first, -1.35 for the second.

Going from C8G A27U A29U G69U C101A C114U to C8G G44C C64U C76A C124G, the “polymerase ribozyme fitness (log ratio)” value falls from -5.18 to -6.22.

Compared with C8G C80G, C8A C64U A121G is higher in “polymerase ribozyme fitness (log ratio)” value: -4.19 for the first, 1.81 for the second.

Going from C8G A43U U54C C72G C114A A118G to C8U A18U A50U G69C C82A C124G, the “polymerase ribozyme fitness (log ratio)” value rises from -5.83 to -3.

Compared with C8G U9C C56G G69A, C8U C15U G36A A68G C97U G120A is higher in “polymerase ribozyme fitness (log ratio)” value: -2.35 for the first, -1.91 for the second.

First: C8U C12A A41U A46G G71A C89U
Second: C8A U112A G128U
The “polymerase ribozyme fitness (log ratio)” value of the first is lower: -2.07 for the first, 0.095 for the second.

First: C8G G48U G58C A75U U109C G113U
Second: C8U A29G A43G
The “polymerase ribozyme fitness (log ratio)” value of the first is lower: -6.98 for the first, -3.05 for the second.

Going from C8G C31A A41U C73G U112A to C8G G44C C70A A84C C115U, the “polymerase ribozyme fitness (log ratio)” value rises from -6.12 to -5.29.

First: C8A C13U U38A C97A
Second: C8A C62U A74C C89A C104A U112C
The “polymerase ribozyme fitness (log ratio)” value of the first is lower: -6.04 for the first, -3.01 for the second.
